{
  "source": "paper PMC7583046",
  "about": "“The Paralogue of the Intrinsically Disordered Nuclear Protein 1 Has a Nuclear Localization Sequence that Binds to Human Importin α3” (International Journal of Molecular Sciences, 2020)",
  "molecules": {"B1": {"name": "NUPR1L, the NUPR1-like paralogue (intact) (natural protein, UniProt A6NF83 1-97, looked up)", "chain": "MEAPAERALPRLQALARPPPPISYEEELYDCLDYYYLRDFPACGAGRSKGRTRREQALRTNWPAPGGHERKVAQKLLNGQRKRRQRQLHPKMRTRLT", "notes": "NUPR1L, 97-residue-long paralogue of NUPR1, intact protein; one tryptophan (Trp62) and five tyrosines; concentrations are in protomer units; also called intact NUPR1L; source: expressed and purified as described [14]"}, "B2": {"name": "NLS-NUPR1L, peptide of the nuclear localization sequence of NUPR1L (residues 51-74) (peptide)", "peptide": "Ac-RTRREQALRTNWPAPGGHERKVAQ-NH2", "notes": "NUPR1L residues Arg51 to Gln74, the predicted NLS region; numbering as in intact NUPR1L; also called NLS-NUNPR1L; source: synthetic peptide (NZYtech, purity of 95%)"}, "B3": {"name": "∆Impα3: Truncated species of Impα3 (residues 64-521) depleted of the IBB (protein, UniProt O00629 64-521, looked up, fragment)", "chain": "GDYRVQNTSLEAIVQNASSDNQGIQLSAVQAARKLLSSDRNPPIDDLIKSGILPILVHCLERDDNPSLQFEAAWALTNIASGTSEQTQAVVQSNAVPLFLRLLHSPHQNVCEQAVWALGNIIGDGPQCRDYVISLGVVKPLLSFISPSIPITFLRNVTWVMVNLCRHKDPPPPMETIQEILPALCVLIHHTDVNILVDTVWALSYLTDAGNEQIQMVIDSGIVPHLVPLLSHQEVKVQTAALRAVGNIVTGTDEQTQVVLNCDALSHFPALLTHPKEKINKEAVWFLSNITAGNQQQVQAVIDANLVPMIIHLLDKGDFGTQKEAAWAISNLTISGRKDQVAYLIQQNVIPPFCNLLTVKDAQVVQVVLDGLSNILKMAEDEAETIGNLIEECGGLEKIEQLQNHENEDIYKLAYEIIDQFFSSDDIDEDPSLVPEAIQGGTFGFNSSANVPTEGFQF"}, "B4": {"name": "Impα3: Human importin α3 isoform (residues 1–521) (protein, UniProt O00629 1-521, looked up)", "chain": "MADNEKLDNQRLKNFKNKGRDLETMRRQRNEVVVELRKNKRDEHLLKRRNVPHEDICEDSDIDGDYRVQNTSLEAIVQNASSDNQGIQLSAVQAARKLLSSDRNPPIDDLIKSGILPILVHCLERDDNPSLQFEAAWALTNIASGTSEQTQAVVQSNAVPLFLRLLHSPHQNVCEQAVWALGNIIGDGPQCRDYVISLGVVKPLLSFISPSIPITFLRNVTWVMVNLCRHKDPPPPMETIQEILPALCVLIHHTDVNILVDTVWALSYLTDAGNEQIQMVIDSGIVPHLVPLLSHQEVKVQTAALRAVGNIVTGTDEQTQVVLNCDALSHFPALLTHPKEKINKEAVWFLSNITAGNQQQVQAVIDANLVPMIIHLLDKGDFGTQKEAAWAISNLTISGRKDQVAYLIQQNVIPPFCNLLTVKDAQVVQVVLDGLSNILKMAEDEAETIGNLIEECGGLEKIEQLQNHENEDIYKLAYEIIDQFFSSDDIDEDPSLVPEAIQGGTFGFNSSANVPTEGFQF", "modifications": "full-length"}},
  "key": {"∆Impα3": {"system": "∆Impα3", "conditions": "CD 222 nm, 60 K/h, 50 mM phosphate pH 7.0, not reversible", "source_text": "Far-UV CD spectra were collected on a Jasco J810 spectropolarimeter (Jasco, Tokyo, Japan) with a thermostated cell holder, and interfaced with a Peltier unit at 298 K. The instrument was periodically calibrated with (+)-10-camphorsulphonic acid. A cell with a path length of 0.1 cm was used (Hellma, Kruibeke, Belgium). All spectra were corrected by subtracting the corresponding baseline. The concentration of each polypeptide (importin species and either NLS-NUPR1L or intact NUPR1L) was the same as that used in the fluorescence experiments (Section 4.4)."}, "[1]": {"conditions": "cited from earlier work"}, "prothymosin α": {"system": "prothymosin α", "conditions": "ref [14]; cited from earlier work", "source_text": "In this aspect, NLS-NUPR1L behaves not differently from any other NLS region of a well-folded protein [15, 20, 22, 40]; that is, it is disordered both in isolation and when participating in forming the complex with impo ..."}, "[2]": {"target": "T1, human importin α3 (Impα3), intact (human, UniProt O00629 1-521)", "T1 construct": "Human importin α3 (KPNA4), intact protein with the IBB domain, residues 1-521; Purification as for ∆Impα3; also called KPNA4; source: E. coli BL21 (DE3), purified (codon-optimized DNA synthesized by NZYtech, in the pHTP1 vector)", "T1 sequence (looked up)": "B4 chain", "test": "other fluorescence titration; importin (0-10 μM) added to a fixed concentration of NUPR1L (8 μM) or NLS-NUPR1L (8.5 μM); 50 mM phosphate buffer, pH 7.0, 298 K; excitation at 280 nm; apparent dissociation constants", "conditions": "both partners purified"}, "[3]": {"target": "T2, ∆Impα3, truncated species of human importin α3 (residues 64-521) depleted of the IBB (human, UniProt O00629 64-521)", "T2 construct": "source: E. coli BL21 (DE3), purified (codon-optimized)", "T2 sequence (looked up)": "B3 chain", "test": "other fluorescence titration; importin (0-10 μM) added to a fixed concentration of NUPR1L (8 μM) or NLS-NUPR1L (8.5 μM); 50 mM phosphate buffer, pH 7.0, 298 K; excitation at 280 nm; apparent dissociation constants", "conditions": "both partners purified"}, "[4]": {"target": "T1, human importin α3 (Impα3), intact", "test": "ITC; Impα3 or ∆Impα3 (10-20 μM) in the cell, NLS-NUPR1L (150-300 μM) in the syringe; Tris 50 mM, pH 8, 298 K; single ligand binding site model", "conditions": "both partners purified"}, "[5]": {"target": "T2, ∆Impα3, truncated species of human …", "test": "ITC; Impα3 or ∆Impα3 (10-20 μM) in the cell, NLS-NUPR1L (150-300 μM) in the syringe; Tris 50 mM, pH 8, 298 K; single ligand binding site model", "conditions": "both partners purified"}, "[6]": {"target": "T1, human importin α3 (Impα3), intact", "test": "other fluorescence titration; importin (0-10 μM) added to a fixed concentration of NUPR1L (8 μM) or NLS-NUPR1L (8.5 μM); 50 mM phosphate buffer, pH 7.0, 298 K; excitation at 280 nm; apparent dissociation constants", "conditions": "both partners purified", "remark": "listed apart in the source"}, "[7]": {"target": "T2, ∆Impα3, truncated species of human …", "test": "other fluorescence titration; importin (0-10 μM) added to a fixed concentration of NUPR1L (8 μM) or NLS-NUPR1L (8.5 μM); 50 mM phosphate buffer, pH 7.0, 298 K; excitation at 280 nm; apparent dissociation constants", "conditions": "both partners purified", "remark": "listed apart in the source"}, "[8]": {"conditions": "ref [25]; cited from earlier work"}},
  "data": [
    {"molecule": "B1", "values": [
      {"measurement": "apparent thermal midpoint of unfolding of ∆Impα3, in presence of NUPR1L", "setting": "∆Impα3; 15 μM NUPR1L, 5 μM importin", "result": 323, "unit": "K"},
      {"measurement": "self-association state in solution", "setting": "[1]; intact protein in solution, no reference at the place", "result": "oligomer"},
      {"measurement": "tendency to aggregate", "setting": "[1]; intact protein, ref [14]", "result": "high tendency to aggregate"},
      {"measurement": "involvement of Trp62 in binding to prothymosin α", "setting": "prothymosin α", "result": "Trp62 is also involved in the binding of NUPR1L to prothymosin α"},
      {"measurement": "Kd", "setting": "[2]", "result": "4 ± 0.7", "unit": "µM"},
      {"measurement": "Kd", "setting": "[3]", "result": "5 ± 1", "unit": "µM"}
    ]},
    {"molecule": "B2", "values": [
      {"measurement": "Kd", "setting": "[4]", "result": "12 ± 2", "unit": "µM"},
      {"measurement": "dH", "setting": "[4]", "result": "-3.1 ± 0.5", "unit": "kcal/mol"},
      {"measurement": "stoichiometry N", "setting": "[4]", "result": "1.04 ± 0.05"},
      {"measurement": "Kd", "setting": "[5]", "result": "5.5 ± 0.9", "unit": "µM"},
      {"measurement": "dH", "setting": "[5]", "result": "-2.4 ± 0.5", "unit": "kcal/mol"},
      {"measurement": "stoichiometry N", "setting": "[5]", "result": "0.75 ± 0.06"},
      {"measurement": "Kd", "setting": "[6]", "result": "3 ± 1", "unit": "µM"},
      {"measurement": "Kd", "setting": "[7]", "result": "5 ± 2", "unit": "µM"}
    ]},
    {"molecule": "B3", "values": [
      {"measurement": "apparent thermal midpoint of unfolding of isolated ∆Impα3", "setting": "∆Impα3; absence of NUPR1L", "result": 317, "unit": "K"},
      {"measurement": "solubility (relative to other importin species)", "setting": "[8]", "result": "lower solubility"}
    ]},
    {"molecule": "B4", "values": [
      {"measurement": "solubility (relative to other importin species)", "setting": "[8]", "result": "larger solubility"}
    ]}
  ]
}
